Test results taken from US20220332804A1 (CSL INNOVATION, published 2022).

Legend:
Test in all cases: SPR; KD relative to WT C2;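 note: biacore SPR at 37 °C, anti-C2 mAbs captured on an anti-human IgG chip, alanine or serine C2 surface mutants tested, KD from 1:1 fit compared with wild-type C2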
human C2 D441A = molecular target: T1, human C2 D441A (human, UniProt P06681 21-752)
T1 sequence: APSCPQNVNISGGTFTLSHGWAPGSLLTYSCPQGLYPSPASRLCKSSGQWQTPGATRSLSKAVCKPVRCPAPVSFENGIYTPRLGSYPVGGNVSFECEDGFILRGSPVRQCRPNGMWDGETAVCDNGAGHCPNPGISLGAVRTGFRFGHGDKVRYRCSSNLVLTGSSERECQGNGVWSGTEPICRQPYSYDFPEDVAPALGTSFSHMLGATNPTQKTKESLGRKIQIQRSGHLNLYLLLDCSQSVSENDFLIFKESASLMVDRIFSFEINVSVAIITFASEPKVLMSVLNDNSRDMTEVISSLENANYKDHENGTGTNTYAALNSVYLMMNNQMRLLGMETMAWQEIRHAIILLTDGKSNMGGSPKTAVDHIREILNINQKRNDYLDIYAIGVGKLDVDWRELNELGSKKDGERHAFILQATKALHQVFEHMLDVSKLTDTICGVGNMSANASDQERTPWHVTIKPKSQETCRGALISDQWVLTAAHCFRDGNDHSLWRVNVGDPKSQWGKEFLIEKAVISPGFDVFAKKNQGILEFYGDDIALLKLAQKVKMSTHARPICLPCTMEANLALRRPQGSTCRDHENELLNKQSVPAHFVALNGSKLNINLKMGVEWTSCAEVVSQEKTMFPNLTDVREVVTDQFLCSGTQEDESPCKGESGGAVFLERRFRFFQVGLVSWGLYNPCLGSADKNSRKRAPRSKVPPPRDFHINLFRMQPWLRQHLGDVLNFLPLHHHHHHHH

human C2 W420A = molecular target: T2, human C2 W420A (human, UniProt P06681 21-752)
T2 sequence: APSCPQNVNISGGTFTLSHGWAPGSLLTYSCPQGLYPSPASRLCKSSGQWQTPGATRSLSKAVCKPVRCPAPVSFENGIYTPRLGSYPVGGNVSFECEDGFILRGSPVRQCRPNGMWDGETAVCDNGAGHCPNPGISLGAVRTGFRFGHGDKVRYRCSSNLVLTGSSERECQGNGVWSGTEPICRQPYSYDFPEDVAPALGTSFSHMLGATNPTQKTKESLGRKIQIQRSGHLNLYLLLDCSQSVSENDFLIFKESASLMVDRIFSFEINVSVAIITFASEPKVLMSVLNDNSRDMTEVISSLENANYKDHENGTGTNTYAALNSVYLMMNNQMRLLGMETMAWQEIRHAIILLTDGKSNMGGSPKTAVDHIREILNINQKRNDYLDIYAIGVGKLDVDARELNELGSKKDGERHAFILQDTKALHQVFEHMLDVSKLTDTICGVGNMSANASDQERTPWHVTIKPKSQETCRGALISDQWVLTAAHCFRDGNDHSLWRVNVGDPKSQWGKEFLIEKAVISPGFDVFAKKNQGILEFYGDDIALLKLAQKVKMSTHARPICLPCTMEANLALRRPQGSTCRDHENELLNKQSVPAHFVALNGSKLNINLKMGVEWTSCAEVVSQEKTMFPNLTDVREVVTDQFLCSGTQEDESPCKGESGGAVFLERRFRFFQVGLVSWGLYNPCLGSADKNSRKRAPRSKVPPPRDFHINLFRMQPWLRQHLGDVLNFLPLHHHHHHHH

human C2 H446A = molecular target: T3, human C2 H446A (human, UniProt P06681 21-752)
T3 sequence: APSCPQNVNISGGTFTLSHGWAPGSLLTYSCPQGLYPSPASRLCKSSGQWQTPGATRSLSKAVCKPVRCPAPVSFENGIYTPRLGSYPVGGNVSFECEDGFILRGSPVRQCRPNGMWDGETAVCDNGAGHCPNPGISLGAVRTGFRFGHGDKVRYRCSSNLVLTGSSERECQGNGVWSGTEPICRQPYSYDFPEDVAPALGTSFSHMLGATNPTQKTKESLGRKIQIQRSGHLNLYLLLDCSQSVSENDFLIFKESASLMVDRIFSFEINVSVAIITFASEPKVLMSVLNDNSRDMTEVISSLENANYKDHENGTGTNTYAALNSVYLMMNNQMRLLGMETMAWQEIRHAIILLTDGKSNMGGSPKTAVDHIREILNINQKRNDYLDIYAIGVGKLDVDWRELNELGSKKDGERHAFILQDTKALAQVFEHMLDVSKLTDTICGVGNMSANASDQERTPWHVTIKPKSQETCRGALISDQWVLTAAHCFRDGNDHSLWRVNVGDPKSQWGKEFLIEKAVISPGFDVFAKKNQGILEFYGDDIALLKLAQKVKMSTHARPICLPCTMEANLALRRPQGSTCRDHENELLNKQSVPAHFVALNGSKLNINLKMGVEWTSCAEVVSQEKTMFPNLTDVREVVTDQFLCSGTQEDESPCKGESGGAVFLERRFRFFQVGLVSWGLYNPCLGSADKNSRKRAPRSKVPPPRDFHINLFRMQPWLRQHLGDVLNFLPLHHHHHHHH

human C2 E476A = molecular target: T4, human C2 E476A (human, UniProt P06681 21-752)
T4 sequence: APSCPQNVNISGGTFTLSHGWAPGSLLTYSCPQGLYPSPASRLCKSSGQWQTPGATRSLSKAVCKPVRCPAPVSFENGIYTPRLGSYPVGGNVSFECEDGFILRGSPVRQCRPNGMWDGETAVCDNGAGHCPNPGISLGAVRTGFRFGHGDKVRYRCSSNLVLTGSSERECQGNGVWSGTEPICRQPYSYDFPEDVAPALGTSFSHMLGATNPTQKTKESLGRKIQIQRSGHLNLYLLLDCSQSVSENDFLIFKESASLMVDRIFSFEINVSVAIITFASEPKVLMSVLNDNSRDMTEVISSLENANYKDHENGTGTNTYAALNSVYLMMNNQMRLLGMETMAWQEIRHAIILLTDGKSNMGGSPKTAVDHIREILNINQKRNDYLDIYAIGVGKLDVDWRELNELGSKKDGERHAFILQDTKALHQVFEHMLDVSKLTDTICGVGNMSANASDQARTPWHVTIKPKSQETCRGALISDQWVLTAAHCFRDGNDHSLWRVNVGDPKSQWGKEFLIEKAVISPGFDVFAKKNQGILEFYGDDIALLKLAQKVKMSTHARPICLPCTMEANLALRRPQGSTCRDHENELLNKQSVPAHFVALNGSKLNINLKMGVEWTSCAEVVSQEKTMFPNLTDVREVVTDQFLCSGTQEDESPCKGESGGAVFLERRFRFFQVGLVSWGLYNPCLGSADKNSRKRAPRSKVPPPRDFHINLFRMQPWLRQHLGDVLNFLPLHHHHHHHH

Fold diff (human C2 D441A): 2 fold | Fold diff (human C2 W420A): 1 fold | Fold diff (human C2 H446A): 5 fold | Fold diff (human C2 E476A): 2 fold
B1: RF16-214 (antibody, V domains shown)
VH: EVQLLESGGGLVQPGGSLRLSCAASGFTFSWYQMMWVRQAPGKGLEWVSRIYPSGGGTAYADSVKGRFTISRDNSKNTLYLQMNSLRAEDTAVYYCARDAGYGDNWGQGTLVTVSS
VL: QSALTQPPSVSVSPGQTASITCSGDKLGEKYASWYQQKAGQSPVMVIYQDRKRPSGIPERFSGSNSGNTATLTISGTQAMDEADYYCQAWDTRAVVFGGGTKLTVLG
